# Reference: the Immune Epitope Database (IEDB)
# What was measured:
# [1] = biological target: HLA-A*30:01; experiment: IEDB peptide-MHC binding, purified MHC/competitive/radioactivity; filed as Kd, often an IC50 or EC50 that approximates it; ≥ and ≤ were set here for values at or beyond the usual limits of such assays; conditions: source organism: Vaccinia virus WR
# [2] = biological target: HLA-B*15:17; experiment: IEDB peptide-MHC binding, purified MHC/competitive/fluorescence; filed as Kd, often an IC50 or EC50 that approximates it; ≥ and ≤ were set here for values at or beyond the usual limits of such assays
# [3] = biological target: HLA-A*68:02; experiment: as above
# [4] = biological target: HLA-B*15:01; experiment: as above; conditions: source organism: Vaccinia virus Tian Tan
# [5] = biological target: HLA-B*18:01; experiment: as above; conditions: source organism: Vaccinia virus Tian Tan
# [6] = biological target: HLA-A*26:03; experiment: as above
# [7] = biological target: HLA-A*26:01; experiment: as above; conditions: source organism: Vaccinia virus Tian Tan
# [8] = biological target: HLA-A*02:06; experiment: as above; conditions: source organism: Vaccinia virus Tian Tan
# [9] = biological target: HLA-B*35:01; experiment: as above; conditions: source organism: Vaccinia virus Tian Tan
# [10] = biological target: HLA-A*03:01; experiment: IEDB peptide-MHC binding, purified MHC/direct/fluorescence; filed as Kd, often an IC50 or EC50 that approximates it; ≥ and ≤ were set here for values at or beyond the usual limits of such assays
# [11] = biological target: HLA-B*08:03; experiment: as above; conditions: source organism: Variola virus
# [12] = biological target: HLA-A*11:01; experiment: as above
# [13] = biological target: HLA-A*02:01; experiment: as above; conditions: source organism: Camelpox virus CMS
# [14] = biological target: HLA-A*31:01; experiment: as above; conditions: source organism: Camelpox virus CMS
# [15] = biological target: HLA-B*40:01; experiment: as above
# [16] = biological target: HLA-A*01:01; experiment: as above
# [17] = biological target: HLA-C*12:03; experiment: as above; conditions: source organism: Vaccinia virus Tian Tan
# [18] = biological target: HLA-B*58:01; experiment: as above
# [19] = biological target: HLA-B*08:01; experiment: as above; conditions: source organism: Variola virus
# [20] = biological target: HLA-B*48:01; experiment: as above
# [21] = biological target: HLA-B*07:02; experiment: as above
# [22] = biological target: HLA-A*69:01; experiment: as above
# [23] = biological target: HLA-B*27:05; experiment: as above; conditions: source organism: Camelpox virus CMS
# [24] = biological target: HLA-B*15:01; experiment: IEDB peptide-MHC binding, purified MHC/competitive/fluorescence; ≥ and ≤ were set here for values at or beyond the usual limits of such assays; conditions: source organism: Vaccinia virus Copenhagen
# [25] = biological target: HLA-A*02:01; experiment: as above; conditions: source organism: Vaccinia virus Copenhagen
# [26] = biological target: HLA-A*01:01; experiment: as above
# [27] = biological target: HLA-A*24:02; experiment: as above; conditions: source organism: Vaccinia virus Copenhagen
# [28] = biological target: HLA-B*15:01; experiment: IEDB peptide-MHC binding, purified MHC/direct/fluorescence; filed as Kd, often an IC50 or EC50 that approximates it; ≥ and ≤ were set here for values at or beyond the usual limits of such assays
# [29] = biological target: HLA-C*15:02; experiment: as above
# [30] = biological target: HLA-B*46:01; experiment: IEDB peptide-MHC binding, purified MHC/competitive/fluorescence; filed as Kd, often an IC50 or EC50 that approximates it; ≥ and ≤ were set here for values at or beyond the usual limits of such assays; conditions: source organism: Bacillus anthracis str. A0488
# [31] = biological target: HLA-B*07:02; experiment: as above; conditions: source organism: Influenza A virus (A/chicken/Scotland/1959(H5N1))
# [32] = biological target: HLA-A*33:01; experiment: IEDB peptide-MHC binding, purified MHC/competitive/radioactivity; filed as Kd, often an IC50 or EC50 that approximates it; ≥ and ≤ were set here for values at or beyond the usual limits of such assays; conditions: source organism: Vaccinia virus WR
# [33] = biological target: HLA-A*68:01; experiment: as above; conditions: source organism: Vaccinia virus WR
# [34] = biological target: HLA-A*31:01; experiment: as above; conditions: source organism: Vaccinia virus WR
# [35] = biological target: HLA-A*03:01; experiment: IEDB peptide-MHC binding, purified MHC/competitive/fluorescence; ≥ and ≤ were set here for values at or beyond the usual limits of such assays; conditions: source organism: Vaccinia virus Copenhagen
# [36] = biological target: HLA-A*11:01; experiment: as above; conditions: source organism: Vaccinia virus Copenhagen
# [37] = biological target: HLA-A*02:01; experiment: IEDB peptide-MHC binding, purified MHC/competitive/fluorescence; filed as Kd, often an IC50 or EC50 that approximates it; ≥ and ≤ were set here for values at or beyond the usual limits of such assays; conditions: source organism: Vaccinia virus Copenhagen
# [38] = biological target: HLA-A*31:01; experiment: as above; conditions: source organism: Vaccinia virus Copenhagen
# [39] = biological target: HLA-B*27:05; experiment: as above; conditions: source organism: Vaccinia virus Copenhagen
# [40] = biological target: HLA-A*26:02; experiment: IEDB peptide-MHC binding, purified MHC/direct/fluorescence; filed as Kd, often an IC50 or EC50 that approximates it; ≥ and ≤ were set here for values at or beyond the usual limits of such assays; conditions: source organism: Variola virus
# [41] = biological target: HLA-B*18:01; experiment: as above; conditions: source organism: Camelpox virus M-96
# [42] = biological target: HLA-B*57:01; experiment: as above; conditions: source organism: Camelpox virus M-96
# [43] = biological target: HLA-B*46:01; experiment: as above; conditions: source organism: Camelpox virus M-96
# [44] = biological target: HLA-A*26:01; experiment: as above; conditions: source organism: Variola virus
# [45] = biological target: HLA-C*14:02; experiment: as above; conditions: source organism: Vibrio antiquarius
# [46] = biological target: HLA-B*51:01; experiment: as above; conditions: source organism: Vibrio parahaemolyticus
# [47] = source organism: Vaccinia virus Tian Tan
# [48] = source organism: Camelpox virus CMS
# [49] = source organism: Vaccinia virus Copenhagen
# [50] = source organism: Camelpox virus M-96
sequence,measurement,setting,value
KVFFGPIYY,Kd,[1],0.154 µM
same,Kd,[2]; [47],0.0216 µM
same,Kd,[3]; [47],≥ 20 µM
same,Kd,[4],0.423 µM
same,Kd,[5],≥ 20 µM
same,Kd,[6]; [47],≥ 20 µM
same,Kd,[7],3 µM
same,Kd,[8],1.8 µM
same,Kd,[9],0.333 µM
same,Kd,[10]; [48],0.029 µM
same,Kd,[11],≥ 20 µM
same,Kd,[12]; [48],0.022 µM
same,Kd,[13],≥ 20 µM
same,Kd,[14],1.29 µM
same,Kd,[15]; [48],≥ 20 µM
same,Kd,[16]; [48],≥ 20 µM
same,Kd,[17],0.045 µM
same,Kd,[18]; [48],0.021 µM
same,Kd,[19],≥ 20 µM
same,Kd,[20]; [48],≥ 20 µM
same,Kd,[21]; [48],≥ 20 µM
same,Kd,[22]; [48],≥ 20 µM
same,Kd,[23],≥ 20 µM
LYQLLEAVY,IC50,[24],≥ 71.9 µM
same,IC50,[25],≥ 72.8 µM
same,IC50,[26]; [49],≥ 199 µM
same,IC50,[27],0.0687 µM
LQIPFAMQM,Kd,[28]; source organism: SARS-CoV1,0.18 µM
same,Kd,[15]; source organism: SARS-CoV1,4.04 µM
same,Kd,[29]; source organism: SARS-CoV1,0.11 µM
same,Kd,[18]; source organism: SARS-CoV1,0.986 µM
LMAFSTGPF,Kd,[30],2.76 µM
same,Kd,[29]; source organism: Bacillus anthracis str. A0488,≥ 20 µM
SPYRTLMSCPI,Kd,[31],0.0036 µM
KLNGAMVEY,Kd,[32],1.96 µM
same,Kd,[33],0.00597 µM
same,Kd,[34],1.18 µM
same,IC50,[35],11.6 µM
same,IC50,[36],7.97 µM
same,IC50,[24],12.2 µM
same,IC50,[25],≥ 95.4 µM
same,IC50,[26]; [49],≥ 192 µM
SLYKYLLLR,Kd,[2]; [49],≥ 20 µM
same,Kd,[3]; [49],3.9 µM
same,Kd,[37],0.555 µM
same,Kd,[38],0.00117 µM
same,Kd,[6]; [49],≥ 20 µM
same,Kd,[39],2.46 µM
same,Kd,[10]; [50],0.031 µM
same,Kd,[11],≥ 20 µM
same,Kd,[12]; [50],0.047 µM
same,Kd,[40],≥ 20 µM
same,Kd,[28]; [50],≥ 20 µM
same,Kd,[41],≥ 20 µM
same,Kd,[15]; [50],≥ 20 µM
same,Kd,[42],≥ 20 µM
same,Kd,[16]; [50],≥ 20 µM
same,Kd,[43],≥ 20 µM
same,Kd,[18]; [50],≥ 20 µM
same,Kd,[19],≥ 20 µM
same,Kd,[20]; [50],≥ 20 µM
same,Kd,[21]; [50],≥ 20 µM
same,Kd,[44],≥ 20 µM
same,Kd,[22]; [50],≥ 20 µM
KVAQAAAAM,Kd,[28]; source organism: Vibrio parahaemolyticus AQ3810,0.029 µM
same,Kd,[45],0.072 µM
same,Kd,[46],≥ 20 µM
same,Kd,[21]; source organism: Vibrio parahaemolyticus,0.034 µM
VVDPDDGSY,IC50,[26]; source organism: Zaire ebolavirus,44.1 µM
